In US6673354B2, “Compositions and methods for treating papillomavirus-infected cells” (priority 1998, dated 2004):
Where no end group is shown, it is not given here.

Assays:
[1] = target: T1, interaction between HPV16 E1 and E2 (Human papillomavirus type 16, UniProt P03114); assay: In vitro HPV E1-E2 binding assay (co-immunoprecipitation / Western blot), HPV16 E1 and HPV16 E2; conditions: increasing peptide concentrations, FIG. 6A
T1 construct: made in house; host or cells: Hi-Five insect cells infected with recombinant baculovirus (pVL1392); nuclear extracts
T1 sequence (P03114 whole entry, looked up): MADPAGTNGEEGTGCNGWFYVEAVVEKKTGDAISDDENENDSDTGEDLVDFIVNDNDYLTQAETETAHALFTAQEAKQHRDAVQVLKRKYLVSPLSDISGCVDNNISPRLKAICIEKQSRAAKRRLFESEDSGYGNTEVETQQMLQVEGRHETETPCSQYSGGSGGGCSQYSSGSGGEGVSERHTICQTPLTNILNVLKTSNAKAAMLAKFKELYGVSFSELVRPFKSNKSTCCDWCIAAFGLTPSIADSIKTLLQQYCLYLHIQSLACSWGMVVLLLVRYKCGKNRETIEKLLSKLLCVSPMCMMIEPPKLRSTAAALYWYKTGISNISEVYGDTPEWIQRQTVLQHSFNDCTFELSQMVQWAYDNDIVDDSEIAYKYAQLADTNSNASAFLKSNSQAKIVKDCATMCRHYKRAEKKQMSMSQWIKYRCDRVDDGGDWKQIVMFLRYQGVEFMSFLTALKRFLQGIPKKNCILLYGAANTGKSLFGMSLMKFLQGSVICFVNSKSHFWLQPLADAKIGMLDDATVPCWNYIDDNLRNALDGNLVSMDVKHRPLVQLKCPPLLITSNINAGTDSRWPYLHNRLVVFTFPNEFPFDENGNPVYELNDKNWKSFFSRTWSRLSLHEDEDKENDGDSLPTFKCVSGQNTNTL
Experimental: In vitro HPV E1-E2 binding assay. 300-500 ng protein from HPV16 or HPV11 EE-E1 expressing recombinant baculovirus infected cell nuclear extracts and 80-120 ng from HPV E2 baculovirus infected cell nuclear extracts were incubated in 500 μl NET-gel buffer (50 mM Tris-HCl pH7.5, 150 mM NaCl, 0.1% NP-40, 1 mM EDTA, 0.25% gelatin) at 4° C. for one hour. 1-2 μg anti-EE monoclonal antibody was added and incubated with shaking at 4° C. for one hour. Immune complexes were precipitated with protein-G agarose beads and washed twice for 30 minutes with ice cold NET-gel buffer. Precipitated proteins were detected by Western blot using appropriate primary antibodies and anti-rabbit IgG HRP or anti-mouse IgG HRP (Amersham). Membranes were blocked for one hour in TNET (10 mM Tris 7.5, 2.5 mM EDTA, 50 mM NaCl, 0.1% Tween-20) containing 4% (w/v) dry milk. Washes and antibody reactions were carried out in TNET, and proteins were visualized by chemiluminescence (Reneaissance ECL, NEN) and autoradiography. Bands were quantitated using the NIH image program.
Therefore, we reasoned that a peptide encompassing this domain of HPV16 E2 might inhibit interaction between HPV16 E1 and E2, thereby inhibiting HPV16 DNA replication (FIG. 5). In order to test this possibility, HPV16 E2 and epitope tagged full length HPV16 E1 (EE16-E1) proteins were expressed separately using baculovirus vectors. EE-E1 and associated E2 proteins were immunoprecipitated using an anti-EE epitope monoclonal antibody. Precipitated E2 was detected by Western blot using polyclonal antiserum raised to the DNA binding domain of HPV16 E2 (35). As shown in lane 2 of FIG. 6A, E2 co-immunoprecipitated with EE16-E1, but was not precipitated by the EE epitope antibody in the absence of EE16-E1 (lane 1). Peptides encompassing HPV16 E2 amino acids 29-51 (E2N-WP23) or residues 33-47 (E2N-WP15) of HPV16 E2 were then tested for inhibition of E1-E2 interaction. These peptide sequences were derived from the sequence of HPV16 E2, and were based on an alignment of amino terminal residues that are conserved among the papillomavirus E2 proteins (FIG. 5). […] Both the HPV16 E2 protein itself and the E2 derived peptides act specifically in these assays, since the E39A replication defective HPV16 E2 mutant bound only slightly to EE16-E1 (lanes 14). […] These peptides are named E2N-MP23 and E2N-MP15, respectively (see FIG. 5). […] We have previously shown that a domain spanning amino acids 421-647 of the HPV16 E1 carboxy terminus is necessary and sufficient for E2 interaction (45).

[2] = tested on: in vitro HPV16 DNA replication; assay: In vitro replication of HPV16 DNA (293 cell extract, EE-E1, HPV16 E2); format: biochemical; conditions: 40 ng EE-E1 and 6 ng HPV16 E2, FIG. 7
Experimental: In vitro replication reactions. In vitro replication reactions were essentially as described by Kuo et al. (18) in 25 μl reactions at 37° C. for indicated times. Standard reactions were for 2 hours, and were terminated by addition of 200 μl stop solution (20 mM Tris-HCl pH 7.5, 10 mM EDTA, 0.1% SDS, and 20 μg/ml RNase A). After incubation at 37° C. for 15 minutes, proteinase K was added (200 μg/ml) and incubation was continued 30 minutes. Samples were extracted with 250 μl phenol/chloroform/isoamyl alcohol (25:24:1), ethanol precipitated, washed with 70% ethanol, dried, resuspended in 20-30μl TE, and analyzed on a 0.8% agarose gel (TAE). The agarose gel was dried onto Hybond N+ membrane (Amersham), and replicated DNA was visualized by autoradiography. Bands were quantitated by Phosphorimager analysis. Replication templates were pKS7838-7905 (nt7838-7905/1-130) containing the HPV16 replication origin, and pUC7874-99 containing the HPV11 origin of replication (nt7874-7933/1-99). pUC7874-99 was a generously provided by Dr. Louise Chow.
We sought to establish a system for the study of HPV16 DNA replication in vitro, and to determine whether specific interaction between HPV16 E1 and E2 was required for HPV16 DNA replication in this system. […] As has been documented for other papillomavirus E1 proteins, some replication was observed using relatively large amounts of E1 in the absence of E2 (lanes 2 through 7) (6, 16, 22, 33, 40, 48). […] Replication in this assay is ori-dependent, since the small amount of replication of the pKS plasmid lacking the HPV16 origin detected at high concentrations of EE-E1 (FIG. 3B, lanes 1-6) was not stimulated by E2 (FIG. 1B, lanes 7-12).
Since the E2N-WP23 and E2N-WP 15 peptides could inhibit interaction between […] E1 and E2, their ability to inhibit in vitro HPV16 DNA replication was also tested (FIGS. 7A and 7B).

WKHMRLACAIYYKAR [E2N-MP15]
inhibition of HPV16 E1-E2 interaction [1]: did not inhibit E1-E2 interaction at concentrations at which the wild type peptide could do so | inhibition of in vitro HPV16 DNA replication [2]: wild type peptides inhibited replication much more effectively than the respective E39A substituted analog
